No end group written: not given here.
Key:
[1] = molecular target: T1, GST-fused human PPARγ-LBD (human); experiment: AlphaScreen or HTRF; LanthaScreen TR-FRET coregulator peptide assay; serial concentrations of F12016 with GST-PPARγ-LBD, terbium-labeled anti-GST antibody and fluorescein-labeled peptide, 4 h; coactivator data as percent of the maximum of rosiglitazone; conditions: both partners purified
T1 construct: Kit protein, detected through a terbium-labeled anti-GST antibody

[2] = molecular target: T1, GST-fused human PPARγ-LBD; experiment: AlphaScreen or HTRF; LanthaScreen TR-FRET coregulator peptide assay; serial concentrations of rosiglitazone with GST-PPARγ-LBD, terbium-labeled anti-GST antibody and fluorescein-labeled peptide, 4 h; 520 nm/495 nm ratio; conditions: both partners purified

T1 sequence (P37231 whole entry, the tested form may be a part): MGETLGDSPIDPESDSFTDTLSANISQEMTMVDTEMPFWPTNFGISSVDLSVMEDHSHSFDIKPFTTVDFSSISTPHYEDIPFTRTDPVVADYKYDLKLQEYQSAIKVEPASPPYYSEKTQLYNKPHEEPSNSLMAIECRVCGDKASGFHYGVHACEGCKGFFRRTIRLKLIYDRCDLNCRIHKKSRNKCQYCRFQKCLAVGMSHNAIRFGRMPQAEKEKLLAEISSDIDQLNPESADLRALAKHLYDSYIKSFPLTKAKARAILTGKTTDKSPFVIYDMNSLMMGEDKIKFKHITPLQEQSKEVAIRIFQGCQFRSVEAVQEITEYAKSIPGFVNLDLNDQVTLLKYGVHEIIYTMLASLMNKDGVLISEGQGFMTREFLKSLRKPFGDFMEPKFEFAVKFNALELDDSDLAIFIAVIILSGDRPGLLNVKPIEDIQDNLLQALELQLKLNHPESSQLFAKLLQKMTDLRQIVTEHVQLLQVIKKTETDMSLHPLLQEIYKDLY

With NTKNHPMLMNLLKDNPAQD (also: fluorescein label, position not given here) the “efficacy (maximum recruitment, % of rosiglitazone), with F12016” value [1] was 17% and the “efficacy (maximum recruitment, % of rosiglitazone), with rosiglitazone” value [2] was 100%.

For EAEEPSLLKKLLLAPANTQ (also: fluorescein label, position not given here) [PPARγ coactivator 1α (PGC-1α) peptide, fluorescein-labeled], the “efficacy (maximum recruitment, % of rosiglitazone), with F12016” value [1] was 57% and the “efficacy (maximum recruitment, % of rosiglitazone), with rosiglitazone” value [2] was 100%.

VTLTSPLLVNLLQSDISAG (also: fluorescein label, position not given here) [nuclear receptor coactivator 250 (RAP250) peptide, fluorescein-labeled] was tested, and the “efficacy (maximum recruitment, % of rosiglitazone), with F12016” value [1] was 25% and the “efficacy (maximum recruitment, % of rosiglitazone), with rosiglitazone” value [2] was 100%.

Source: paper PMC4381330, “Identification of a novel selective agonist of PPARγ with no promotion of adipogenesis and less inhibition of osteoblastogenesis” (Scientific Reports, 2015)
